Results on one molecule are retold here after paper doi:10.1101/2024.08.19.608718, “The structural basis for RNA slicing by human Argonaute2”.

The target in the data set is HsAGO2 D669A (catalytically dead) (Homo sapiens, UniProt Q9UKV8 1-859, D669A). As to the kind of experiment: cryo-EM (3.3 A); 1 mM Mg2+; one Mg modelled; Dissociation filter binding: 17.6 mM HEPES pH 7.4, 97.8 mM KOAc, 0.978 mM Mg(OAc)2, 5 mM DTT, BSA, yeast tRNA, 0.01% IGEPAL, 1.6% glycerol, 37 C; cryo-EM complex: 50 mM Tris pH 7.5, 150 mM NaCl, 1 mM MgCl2, 2% glycerol, 0.5 mM TCEP (target bound at 25 C in 10% glycerol). Particulars: protein: recombinant; tags: 3xFLAG-SUMOEu1, cleaved off by SENPEuB; label: biotin on target 3' end (click, diazo biotin azide); guide-target paired from g2 to g22; target overhangs 5' 3 nt and 3' 3 nt; g1 not paired.
Chain of HsAGO2 D669A (catalytically dead) (Q9UKV8 whole entry D669A): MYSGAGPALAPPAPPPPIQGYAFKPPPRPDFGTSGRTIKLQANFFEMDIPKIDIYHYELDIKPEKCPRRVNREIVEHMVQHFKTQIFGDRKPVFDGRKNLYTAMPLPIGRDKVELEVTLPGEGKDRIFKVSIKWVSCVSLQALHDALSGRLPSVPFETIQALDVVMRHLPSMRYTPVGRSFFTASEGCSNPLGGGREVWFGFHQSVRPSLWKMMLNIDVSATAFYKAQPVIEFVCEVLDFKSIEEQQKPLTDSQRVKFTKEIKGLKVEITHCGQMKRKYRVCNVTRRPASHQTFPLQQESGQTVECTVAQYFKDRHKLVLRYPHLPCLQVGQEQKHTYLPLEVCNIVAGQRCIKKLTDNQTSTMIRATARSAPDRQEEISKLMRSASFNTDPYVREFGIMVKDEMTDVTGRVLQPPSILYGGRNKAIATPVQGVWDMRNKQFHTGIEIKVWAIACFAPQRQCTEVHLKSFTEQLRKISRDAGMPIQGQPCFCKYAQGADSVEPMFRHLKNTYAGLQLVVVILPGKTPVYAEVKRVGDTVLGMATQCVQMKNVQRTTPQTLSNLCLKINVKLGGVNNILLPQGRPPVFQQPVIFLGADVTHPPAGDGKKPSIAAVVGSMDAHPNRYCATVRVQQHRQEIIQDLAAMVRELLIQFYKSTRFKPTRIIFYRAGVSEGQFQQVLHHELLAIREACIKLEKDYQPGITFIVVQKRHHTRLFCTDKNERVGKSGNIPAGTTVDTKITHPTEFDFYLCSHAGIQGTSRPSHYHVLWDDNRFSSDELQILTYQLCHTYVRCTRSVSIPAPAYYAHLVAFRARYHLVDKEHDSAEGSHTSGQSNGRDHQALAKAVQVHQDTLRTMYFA

B1: miR-7 guide (22 nt) / fully complementary target (dsRNA)
RNA 1: UGGAAGACUAGUGAUUUUGUUG
RNA 2: UUUCAACAAAAUCACUAGUCUUCCAAAU
modifications: guide 5'-phosphate; target nt 1-3 (U) and 26-27 (A) 2'-O-methyl; 3'-terminal nt is deoxyuridine with 5-octadiynyl
For B1, the binding result was “binds”.
